The values that follow come from patent publication US20090123479A1 (published 2009).

The Kd is the constant that tells how readily two partners part at equilibrium. The term koff denotes the rate constant with which the complex falls apart. One may read the kon as a measure of how fast the partners come together.

Test [1] addresses T1, recombinant human IL-23 (human, UniProt Q9NPF7 20-189; P29460 23-328).
T1 construct: also called hIL-23
T1 sequence 1: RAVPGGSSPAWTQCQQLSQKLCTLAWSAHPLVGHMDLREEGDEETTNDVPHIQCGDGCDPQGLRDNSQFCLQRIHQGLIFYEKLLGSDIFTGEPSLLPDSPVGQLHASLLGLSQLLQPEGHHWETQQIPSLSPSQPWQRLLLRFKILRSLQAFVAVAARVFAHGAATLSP
T1 sequence 2: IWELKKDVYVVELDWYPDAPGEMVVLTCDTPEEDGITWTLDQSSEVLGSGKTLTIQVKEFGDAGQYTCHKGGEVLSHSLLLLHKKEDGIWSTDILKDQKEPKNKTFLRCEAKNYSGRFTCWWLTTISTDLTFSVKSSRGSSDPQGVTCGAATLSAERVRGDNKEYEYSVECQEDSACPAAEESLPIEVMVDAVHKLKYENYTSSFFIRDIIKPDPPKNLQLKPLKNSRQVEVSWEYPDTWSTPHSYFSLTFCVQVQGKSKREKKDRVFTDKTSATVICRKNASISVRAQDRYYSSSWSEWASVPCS
Nature of the test: IL-23/IL-23R inhibition ELISA (optimised protocol, OD450): plate coated with human IL23R Fc chimera, antibody pre-incubated with constant human IL-23, bound IL-23 detected with biotinylated anti-human IL-12; purified antibody. Here is the method: (§1) Optimised protocol: Plates were coated with human IL23R Fc chimera at […] (phosphate buffered saline). 50 μl/well of this mixture was incubated overnight at 4° C. The plates were then washed three times with Phosphate Buffered Saline with 0.05% Tween 20 (PBST). Plates were blocked with 4% skim milk powder (Fluka BioChemika #70166) PBST 100 μl/well for a minimum of 1 hour at room temperature. The plates were then washed three times with Phosphate Buffered Saline+0.05% Tween 20 (PBST). Various concentrations of antibody were incubated in a separate plate with a constant concentration of IL-23 for 1 hour at room temperature. 50 ul of each mixture were transferred to the assay plate and incubated at RT for 1 hr. They were then washed three times with Phosphate Buffered Saline+0.05% Tween 20 (PBST). Bound IL23 was detected by anti human 1L12 Biotin labelled Ab (R&D systems BAF219) diluted to 100 ng/ml in 4% skim milk powder (Fluka BioChemika #70166) PBST. 50 μl/well of the biotinylated antibody was added and incubated at RT for 1 hour. The plates were then washed three times with Phosphate Buffered Saline+0.05% Tween 20 (PBST). SA HRP (GE healthcare RPN4401) was diluted 1/4000 in 4% skim m ilk powder (Fluka BioChemika #70166) PBS, 50 μl/well was added to the plates. The plates were then washed three times with Phosphate Buffered Saline+0.05% Tween 20 (PBST). 50 ul/well of TMB was added to the plates and incubated at RT for 15 min. 25 μl/well of 3 MH₂SO₄ was added to the wells already containing TMB. The plate was read at OD450 nm using the SOftmaxPRO versamax plate reader.
A general note: An ELISA detects its analyte on a solid surface through an enzyme-linked reagent.

Test [2] addresses T1, recombinant human IL-23. Nature of the test: SPR (Biacore T100), purified material captured on Protein A or anti-human IgG, IL-23 analyte at 256, 64, 16, 4, 1 nM. As to the method: (§2) Protein A or an anti-human IgG (Biacore BR-1008-39) was immobilised on a Biacore CM5 chip by primary amine coupling in accordance with the manufacturer's instructions. Anti IL-23 antibodies were captured on this surface and after a period of stabilisation, […] was passed over the antibody captured surface and a binding sensorgram was obtained. […] All runs were double referenced with a buffer injection over the captured antibody surface. Data was analysed using the 1:1 model using the software inherent to the Biacore 3000 or T100 depending upon which machine was used to generate kinetics. Analysis was carried out at 25° C. using HBS-EP buffer. Data presented in Tables 3-6 are on tissue culture supernatants of CHO cells transiently expressing the antibody of interest unless otherwise indicated. Data was generated using concentrations of IL-23 (256, 64, 16, 4, 1 and 0.25 nM) The data shown for the humanized variants is representative of a number of runs, The chimeric mAb (8C9H6.HC1LC1) was only run once in each experiment, so data shown for this mAb is from that one run, […]
On the technique in general: SPR reads the build-up and loss of mass on a sensor chip optically.

Test [3] deals with T1, recombinant human IL-23. Nature of the test: SPR (Biacore 3000), CHO supernatant antibody captured on Protein A or anti-human IgG, IL-23 analyte at 100, 10, 1 nM. Here is the method: as §2, with “indicated.” for “indicated. Data was generated using concentrations of IL-23 (256, 64, 16, 4, 1 and 0.25 nM) The data shown for the humanized variants is representative of a number of runs, The chimeric mAb (8C9H6.HC1LC1) was only run once in each experiment, so data shown for this mAb is from that one run,”

Test [4] deals with T2, recombinant cynomologus IL-23 (cynomolgus, limits assumed).
T2 construct: also called cynomolgus IL-23; cyno IL23
T2 chain 1: T1 sequence 1 with T12A, H75R, L131P
T2 chain 2: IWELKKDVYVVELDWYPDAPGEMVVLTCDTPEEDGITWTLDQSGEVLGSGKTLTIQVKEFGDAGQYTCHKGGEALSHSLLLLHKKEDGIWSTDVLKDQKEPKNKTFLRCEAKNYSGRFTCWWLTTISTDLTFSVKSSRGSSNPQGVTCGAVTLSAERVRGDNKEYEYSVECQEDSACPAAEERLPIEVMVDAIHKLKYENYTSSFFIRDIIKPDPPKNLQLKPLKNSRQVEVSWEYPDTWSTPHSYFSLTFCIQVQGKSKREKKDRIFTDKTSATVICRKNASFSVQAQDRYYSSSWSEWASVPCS
Nature of the test: IL-23/IL-23R inhibition ELISA (optimised protocol, OD450): plate coated with human IL23R Fc chimera, antibody pre-incubated with constant cynomolgus IL-23, bound IL-23 detected with biotinylated anti-human IL-12; purified antibody. Here is the method: as §1

Changes are numbered by the printed parent chain.

B1: chimeric 8C92H6 HC1LC1 (antibody, V domains shown)
VH: QVQLQQSGAELARPGTSVKLSCKASGYTFTSYGITWVKQRTGQGLEWIGENYPRSGNTYYNEKFKGKATLTADKSSSTAYMELRSLTSEDSAVYFCARCEFISTVVAPYYYALDYWGQGTSLVTVS
VL: DIVLTQSPASLAVSLGQKATISCKASKKVTIFGSISALHWYQQKPGQPPKLIYNGAKLESGVSARFSDSGSQNRSPFGNQLSFTLTIDPVEADDAATYYCLQNKEVPYTFGGGTKLEIKR
notes: Murine variable regions with human constant regions; also called 8C92H6.HC1LC1 Chimera; 8C9 chimera
Take B1: in the test with recombinant human IL-23 [1], the “IC50 (read off the curve)” value is about 2 nM. Also, in the test with recombinant human IL-23 [2], the Kd was 2.2 nM, the koff was 0.00043 s⁻¹ and the association rate constant (kon) came to 200000 M⁻¹ s⁻¹. Moreover, in the test with recombinant human IL-23 [3], the Kd was 1.4 nM, the koff was 0.00039 s⁻¹ and the kon was 270000 M⁻¹ s⁻¹. In test [4], the “IC50 (read off the curve)” value was about 2 nM.

B2: A3M0 (antibody, human IgG1, kappa, V domains shown)
VH: QVQLVQSGAEVKKPGSSVKVSCKASGYTFTSYGITWVRQAPGQGLEWMGENYPRSGNTYYNEKFKGRVTITADKSTSTAYMELSSLRSEDTAVYYCARSEFISTVVAPYYYALDYWGQGTLVTVSS
VL: DIVMTQSPDSLAVSLGERATINCKASKKVTIFGSISALHWYQQKPGQPPKLIYNGAKLESGVPDRFSGSGSGTDFTLTISSLQAEDVAVYYCLQNKEVPYTFGGGTKVEIKR
notes: Full length chains; also called humanized mAb A3M0
B2: the “IC50 (read off the curve)” value with recombinant human IL-23 [1] was about 0.5 nM; in test [4], about 0.7 nM.
